This note sets out measurements from patent US20240398804.

In this series the target is YAP1 Y357F (UniProt P46937).

With “WT SRC (expressed from plasmid in 293T cells)”, the “YAP1 tyrosine phosphorylation (immunoprecipitation, immunoblot)” value is listed as “Under conditions where YES1 or SRC phosphorylated YAP1, we failed to detect phosphorylation of the YAP1 Y357F mutant”.
With “YES1 (Yamaguchi sarcoma viral oncogene homolog 1)”, the “YAP1 tyrosine phosphorylation (immunoprecipitation, immunoblot)” value is reported as “Under conditions where YES1 or SRC phosphorylated YAP1, we failed to detect phosphorylation of the YAP1 Y357F mutant”.
